Source: patent US6150515, “Tat-SF: cofactor for stimulation of transcriptional elongation by HIV-1 Tat” (Massachusetts Institute of Technology, dated 2000)

Target: HIV-1 Tat, recombinant wild type Tat protein (HIV-1, UniProt P04608)
Experiment: cell-based or functional assay

B1: Tat-Stimulatory Factor protein Tat-SF1 (pp140) (other)
chain: MSGTNLDGNDEFDEQLRMQELYGDGKDGDTQTDAGGEPDSLGQQPTDTPYEWDLDKKAWFPKITEDFIATYQANYGFSNDGASSSTANVEDVHARTAEEPPQEKAPEPTDARKKGEKRKAESGWFHVEEDRNTNVYVSGLPPDITVDEFIQLMSKFGIIMRDPQTEEFKVKLYKDNQGNLKGDGLCCYLKRESVELALKLLDEDEIRGYKLHVEVAKFQLKGEYDASKKKKKCKDYKKKLSMQQKQLDWRPERRAGPSRMRHERVVIIKNMFHPMDFEDDPLVLNEIREDLRVECSKFGQIRKLLLFDRHPDGVASVSFRDPEEADYCIQTLDGRWFGGRQITAQAWDGTTDYQVEETSREREERLRGWEAFLNAPEANRGLSVQILSLLRKAGPSRARHFSEHPSTSKMNAQETATGMAFEEPIDEKKFEKTEDGGEFEEGASENNAKESSPEKEAEEGCPEKESEEGCPKRGFEGSCSQKESEEGNPVRGSEEDSPKKESKKKTLKNDCEENGLAKESEDDLNKESEEEVGPTKESEEDDSEKESDEDCSEKQSEDGSEREFEENGLEKDLDEEGSEKELHENVLDKELEENDSENSEFEDDGSEKVLDEEGSEREFDEDSDEKEEEEDTYEKVFDDESDEKEDEEYADEKGLEAADKKAEEGDADEKLFEESDDKEDEDADGKEVEDADEKLFEDDDSNEKLFDEEEDSSEKLFDDSDERGTLGGFGSVEEGPLSTGSSFILSSDDDDDDI
modifications: phosphorylated by its associated kinase in the kinase reactions (gamma-32P ATP); sites not stated
**Q.** For B1, which “fold activation by Tat of an HIV-1 LTR-CAT reporter (pBennCAT) in HeLa cells co-transfected with pSV-Tat-SF1, relative to empty vector” value is on record?
**A.** 5.2 fold
